Laboratory results from US20250368742A1 (D2M BIOTHERAPEUTICS, published 2025).
Where a chain is given by its changes, count along the chain named. Where two headings read alike, the source gives them in different places.

T1: human MICA002 on cells (human)
T1 chain: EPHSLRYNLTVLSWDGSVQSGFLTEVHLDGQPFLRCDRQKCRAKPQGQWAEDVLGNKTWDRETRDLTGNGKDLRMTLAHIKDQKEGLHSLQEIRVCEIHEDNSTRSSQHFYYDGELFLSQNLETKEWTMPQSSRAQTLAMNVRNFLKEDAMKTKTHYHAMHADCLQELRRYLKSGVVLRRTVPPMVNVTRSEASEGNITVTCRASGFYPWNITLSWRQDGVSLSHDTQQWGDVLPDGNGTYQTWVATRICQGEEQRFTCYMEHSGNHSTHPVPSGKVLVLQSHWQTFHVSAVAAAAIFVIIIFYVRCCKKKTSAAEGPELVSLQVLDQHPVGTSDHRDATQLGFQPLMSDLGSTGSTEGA

T2: MICA002-ECD-HISAvi (human, UniProt Q29983 24-308)
T2 construct: also called MICA002 polypeptide
T2 chain: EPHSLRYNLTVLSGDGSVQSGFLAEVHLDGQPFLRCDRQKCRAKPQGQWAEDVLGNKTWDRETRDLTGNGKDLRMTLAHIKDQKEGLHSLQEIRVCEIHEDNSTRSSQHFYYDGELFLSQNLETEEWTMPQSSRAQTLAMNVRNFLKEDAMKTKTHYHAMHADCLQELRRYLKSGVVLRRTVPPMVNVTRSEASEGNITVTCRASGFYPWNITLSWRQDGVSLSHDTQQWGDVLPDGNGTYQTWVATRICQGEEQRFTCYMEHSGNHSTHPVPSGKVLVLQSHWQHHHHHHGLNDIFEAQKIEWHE

T3: MICA004-ECD-HISAvi (human)
T3 construct: also called MICA004 polypeptide
T3 chain: T2 chain with G14W, C36Y, L122V, M129V, K173E, G175S, T181R, G206S, W210R, S215T

T4: MICA008-ECD-HISAvi (human)
T4 construct: Two sources under one name in the two kinetic assays; also called MICA008 polypeptide
T4 chain: T2 chain with G14W, C36Y, M129V, K173E, G206S, W210R, T213I, S215T, Q251R

T5: MICB005-ECD-HISAvi (human, UniProt Q29980 24-309)
T5 construct: Two sources under one name in the two kinetic assays; also called MICB005 polypeptide
T5 sequence: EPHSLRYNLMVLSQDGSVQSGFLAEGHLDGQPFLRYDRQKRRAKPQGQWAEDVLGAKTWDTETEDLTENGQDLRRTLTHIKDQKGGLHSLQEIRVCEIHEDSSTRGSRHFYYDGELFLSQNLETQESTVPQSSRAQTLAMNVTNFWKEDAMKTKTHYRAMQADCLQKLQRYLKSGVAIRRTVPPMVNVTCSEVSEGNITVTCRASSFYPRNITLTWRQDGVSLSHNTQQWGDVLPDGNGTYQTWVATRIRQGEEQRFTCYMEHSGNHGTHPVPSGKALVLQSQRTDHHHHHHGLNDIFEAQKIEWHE

B1: 1D5 (antibody, human IgG1, kappa, V domains shown)
VH: EIQLQQSGPELVKPGASVKVSCKASGYAFTSQNIYWVKQSHGKSLEWIGYIEPYNVVPMYNPKFKGKATLTVDKSSSSAYIHLNSLTSEDSAIYYCARSGSSNFDYWGQGTTLTVSS
VL: EIILTQSPTTMAASPGEKITITCSASSSISSHYLHWYQQKSGFSPKLLIYRTSNLASGVPARFSGSGSGTSYSLTIGTMEAEDVATYYCQQGSSLPLTFGAGTKVEIKR
notes: also called ID5
B2: 3F9 (antibody, human IgG1, kappa, V domains shown)
VH: QVQLVESGGGLVKPGGSLRLSCAASGFTFSNYAMSWIRQAPGKGLEWVSYISPGGDYIYYADSVKGRFTISRDNAKNSLYLQMNSLRAEDTAVYYCTTDRRHYGSYAMDYWGQGTLVTVSS
VL: DIVMTQSPLSLPVTPGEPASISCRSSKSLLHSNLNTYLYWFLQKPGQSPQILIYRMSNLASGVPDRFSGSGSGTAFTLKISRVEAEDVGVYYCMQHLEYPFTFGPGTKLEIKR
notes: also called benchmark 3F9

Experiments:
human MICA002 on cells [1] = target: T1, human MICA002 on cells; assay: flow cytometry, CHO-MICA002 cells
Method: CHO-MICA002 cells were incubated with titrated anti-MICA/B antibodies and then APC-labeled anti-human Fc antibody. […] The antibody binding signals of APC (gMFI) to MICA/B were measured by flow cytometry.
(§1) After an incubation time of 30 minutes, the plate was centrifuged and cells were washed with PBS three times. […] After mixing for 30 minutes at room temperature, cells were washed with PBS twice. Fluorescent signal was detected and quantified by flow cytometry (Attune™ CytPix™, ThermoFisher) within the population of live cells (viability dye PI negative).

human MICA008 on cells [2] = target: T6, human MICA008 on cells (human); assay: flow cytometry, CHO-MICA008 cells
T6 construct: whole, on cells; also called CHO-MICA008; C1R-MICA008
Method: (§2) IgG1 is an isotype control (IgG). The antibody binding signals of APC (gMFI) to MICA/B were measured by flow cytometry.
as §1

human MICB005 on cells [3] = target: T7, human MICB005 on cells (human); assay: flow cytometry, CHO-MICB005 cells
T7 construct: whole, on cells; also called CHO-MICB005; C1R-MICB005
Method: as §2, §1

human MICA002 on cells [4] = target: T1, human MICA002 on cells; assay: flow cytometry, CHO-MICA002 cells
human MICB005 on cells [5] = target: T7, human MICB005 on cells; assay: flow cytometry, CHO-MICB005 cells; remark: listed apart in the source
human MICA004 on cells = target: T8, human MICA004 on cells (human); assay: flow cytometry, CHO-MICA004 cells
T8 construct: whole, on cells; also called CHO-MICA004; C1R-MICA004

human MICA008 on cells [6] = target: T6, human MICA008 on cells; assay: flow cytometry, CHO-MICA008 cells; remark: listed apart in the source
human MICB005 on cells [7] = target: T7, human MICB005 on cells; assay: flow cytometry, CHO-MICB005 cells; remark: listed apart in the source
human MICA008 on cells [8] = target: T6, human MICA008 on cells; assay: flow cytometry, HeLa cells (MICA008)
MICA002-ECD-HISAvi [9] = target: T2, MICA002-ECD-HISAvi; assay: SPR (Carterra); antibody captured by anti-human Fc, monomeric ECD antigen injected
Method: (§3) The dissociation kinetics were monitored for approximately 10 minutes. The chip surface was regenerated between binding cycles with 10 mM glycine HCl, pH 1.7. Binding kinetics were analyzed using software supplied by the manufacturer.

MICA004-ECD-HISAvi [10] = target: T3, MICA004-ECD-HISAvi; assay: as above
Method: as §3

MICA008-ECD-HISAvi [11] = target: T4, MICA008-ECD-HISAvi; assay: as above
Method: as §3

MICA002-ECD-HISAvi [12] = target: T2, MICA002-ECD-HISAvi; assay: as above
Method: as §3

MICA004-ECD-HISAvi [13] = target: T3, MICA004-ECD-HISAvi; assay: as above
Method: as §3

MICA008-ECD-HISAvi [14] = target: T4, MICA008-ECD-HISAvi; assay: as above
Method: as §3

MICB005-ECD-HISAvi = target: T5, MICB005-ECD-HISAvi; assay: as above
Method: as §3

T6 sequence (Q29983 whole entry): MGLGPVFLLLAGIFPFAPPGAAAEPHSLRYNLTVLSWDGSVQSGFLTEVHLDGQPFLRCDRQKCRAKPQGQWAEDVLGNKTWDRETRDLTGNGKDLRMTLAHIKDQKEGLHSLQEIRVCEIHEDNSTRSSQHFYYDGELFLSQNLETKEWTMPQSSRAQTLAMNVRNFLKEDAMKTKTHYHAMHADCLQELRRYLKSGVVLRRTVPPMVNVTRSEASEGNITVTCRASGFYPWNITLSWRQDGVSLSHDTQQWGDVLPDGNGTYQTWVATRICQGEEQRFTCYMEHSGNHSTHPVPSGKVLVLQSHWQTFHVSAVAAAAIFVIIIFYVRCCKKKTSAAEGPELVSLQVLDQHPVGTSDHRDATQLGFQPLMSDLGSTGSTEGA

Binder | EC50 (human MICA002 on cells [1]) | EC50 (human MICA008 on cells [2]) | EC50 (human MICB005 on cells [3]) | EC50 (human MICA002 on cells [4]) | EC50 (human MICB005 on cells [5]) | EC50 (human MICA004 on cells) | EC50 (human MICA008 on cells [6]) | EC50 (human MICB005 on cells [7]) | EC50 (human MICA008 on cells [8]) | Kd (MICA002-ECD-HISAvi [9]) | Kd (MICA004-ECD-HISAvi [10]) | Kd (MICA008-ECD-HISAvi [11]) | Kd (MICA002-ECD-HISAvi [12]) | Kd (MICA004-ECD-HISAvi [13]) | Kd (MICA008-ECD-HISAvi [14]) | Kd (MICB005-ECD-HISAvi)
B1 | 0.19 µg/mL | 0.028 µg/mL | 0.152 µg/mL | 0.209 µg/mL | 0.142 µg/mL | 0.193 µg/mL | 0.06 µg/mL | 0.198 µg/mL | 0.034 µg/mL | 0.47 nM | 1.35 nM | 1.79 nM | 0.032 nM | 0.52 nM | 0.269 nM | 0.96 nM
B2 | 0.352 µg/mL | 0.119 µg/mL | 0.572 µg/mL | – | – | 0.89 µg/mL | 0.272 µg/mL | 1.08 µg/mL | 0.115 µg/mL | 5.67 nM | 4.05 nM | 2.82 nM | 1.65 nM | 2.78 nM | 2 nM | 5.47 nM
